Assay results as given in patent publication US20240026017A1 (Kyowa Kirin, published 2024).
Numbering of substitutions follows the chain as printed.

T1: human CC chemokine receptor 1 (human CCR1) (human, UniProt P32246 1-355)
T1 construct: endogenous on THP-1 cells in the migration assays; also called hCCR1; CHO-S-hCCR1 (expressing cells)
T1 sequence: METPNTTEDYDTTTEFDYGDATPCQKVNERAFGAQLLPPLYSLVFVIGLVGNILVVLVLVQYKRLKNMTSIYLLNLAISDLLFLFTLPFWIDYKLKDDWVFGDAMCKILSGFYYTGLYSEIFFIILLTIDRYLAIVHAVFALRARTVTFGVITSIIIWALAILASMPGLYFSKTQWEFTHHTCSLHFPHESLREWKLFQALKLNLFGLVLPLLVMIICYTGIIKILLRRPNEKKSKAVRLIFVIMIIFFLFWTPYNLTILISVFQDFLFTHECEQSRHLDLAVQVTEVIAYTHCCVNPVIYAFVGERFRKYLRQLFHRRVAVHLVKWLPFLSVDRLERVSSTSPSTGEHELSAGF

B1: chKM5908′ mut05 (antibody, V domains shown)
VH: QVQLKQSGPGLVQPSQSLSITCTVSGFSLNNYGVHWVRQPPGKGLEWLGVTWSAGTTVYNAAFISRLSISKDDSKSQVFFKMNSLQAGDTAIYYCAKDGSRYYTAMDYWGQGTSVTVSS
VL: DVVMTQTPLSLPVSLGDQASIFCRSSQSLVHRNGITFFHWYLQKPGQSPKLLIYKVSNRFSGVPDRFSGSGSGTDFTLKISRVAPDDLGVYFCSQGTHVPPTFGGGTKLEIK
B2: chKM5908′ mut17 (antibody, V domains shown)
VH: B1 VH
VL: B1 VL with F38A
B3: chKM5908′ mut06 (antibody, V domains shown)
VH: B1 VH with T51I, V58A
VL: B1 VL
B4: chKM5908′ mut18 (antibody, V domains shown)
VH: B1 VH with T51I, F63A
VL: B1 VL with F38A
B5: chKM5908′ mut15 (antibody, V domains shown)
VH: B1 VH with Y102A, T104A
VL: B1 VL
B6: chKM5908′ mut26 (antibody, V domains shown)
VH: B1 VH with T51I, F63A
VL: B1 VL with R59K
B7: chKM5908′ mut07 (antibody, V domains shown)
VH: B1 VH with T51I, F63A
VL: B1 VL
B8: chKM5908′ mut11 (antibody, V domains shown)
VH: B1 VH with V58A, I64A
VL: B1 VL
B9: chKM5908′ mut09 (antibody, V domains shown)
VH: B1 VH with T51I, Y102A
VL: B1 VL
B10: chKM5908′ mut14 (antibody, V domains shown)
VH: B1 VH with I64A
VL: B1 VL
B11: chKM5908′ mut25 (antibody, V domains shown)
VH: B1 VH
VL: B1 VL with R59K
B12: chKM5908′ mut08 (antibody, V domains shown)
VH: B1 VH with T51I, I64A
VL: B1 VL
B13: chKM5908′ mut04 (antibody, V domains shown)
VH: B1 VH with T51I
VL: B1 VL with F38A, V56I
B14: chKM5908′ mut23 (antibody, V domains shown)
VH: B1 VH with V58A, I64A
VL: B1 VL with V56I
B15: chKM5908′ mut10 (antibody, V domains shown)
VH: B1 VH with T51I, T104A
VL: B1 VL
B16: chKM5908′ mut13 (antibody, V domains shown)
VH: B1 VH with I64A, T104A
VL: B1 VL
B17: chKM5908′ mut20 (antibody, V domains shown)
VH: B1 VH with I64A, Y102A, T104A
VL: B1 VL with F38A
B18: chKM5908′ mut21 (antibody, V domains shown)
VH: B1 VH
VL: B1 VL with V56I
B19: chKM5908′ mut12 (antibody, V domains shown)
VH: B1 VH with I64A, Y102A, T104A
VL: B1 VL
B20: chKM5908′ mut22 (antibody, V domains shown)
VH: B1 VH with T51I, F63A
VL: B1 VL with V56I
notes: also called mAb5-06; mAb 5-06
B21: chKM5908′ mut19 (antibody, V domains shown)
VH: B1 VH with V58A, I64A
VL: B1 VL with F38A
B22: chKM5908′ mut24 (antibody, V domains shown)
VH: B1 VH with I64A, Y102A, T104A
VL: B1 VL with V56I
B23: hzKM5916 LV0HV1 antibody (antibody, V domains shown)
VH: QVQLQESGGGLVKPGGSLKLSCAASGFTFSRNAMSWVRQTPDKRLEWVAYISSGSDYIYYADTVKGRFTISRDNAKNTLYLQMSSLKSEDTAMYYCTRFSYGYGKNAPDYWGQGTMVTVSS
VL: DIQMTQSPSSLSASVGDRVTITCKASQDINKYIAWYQQKPGKAPKLLIHYTSSLQPGVPSRFSGSGSGTDFSFTISSLQPEDLATYYCLQYDYTMTFGGGTKVEIK
notes: humanized; also called hzmAb5916 LV0HV1
B24: hzKM5916 LV2HV3 antibody (antibody, V domains shown)
VH: B23 VH with D42E, K87R
VL: B23 VL with Q38H, A43G
notes: humanized; also called hzmAb5916 LV2HV3
B25: hzKM5916 LV0HV0 antibody (antibody, V domains shown)
VH: B23 VH with T97A
VL: B23 VL
notes: humanized; also called hzmAb5916 LV0HV0
B26: hzKM5916 LV2HV1 antibody (antibody, V domains shown)
VH: B23 VH
VL: B23 VL with Q38H, A43G
notes: humanized; also called hzmAb5916 LV2HV1
B27: hzKM5916 LV0HV3 antibody (antibody, V domains shown)
VH: B23 VH with D42E, K87R
VL: B23 VL
notes: humanized; also called hzmAb5916 LV0HV3
B28: hzKM5907 LV2bHV0 antibody (antibody, V domains shown)
VH: EVQLLESGGGLVQPGGSLRLSCAASGFTFSRYGMSWVRQAPGKGLEWVSSISATFTYTYYTDNVKGRFTISRDNSKNTLYLQMNSLRAEDTAVYYCAKQDNYAWFDSWGQGTLVTVSS
VL: DIVMTQTPLSLPVTSGEPVSISCRSSQSIVHSNGNTFLEWYLKKPGQSPQLLIYKVSSRFSGVPDRFSGSGSGTDFTLKISRVEAEDVGVYYCFQGSHIPWTFGGGTKVEIK
notes: humanized; also called hzmAb5907 LV2bHV0
B29: hzKM5907 LV2bHV7 antibody (antibody, V domains shown)
VH: B28 VH with L4V, G44R, S49A, A92G, V93M, A97T, K98R
VL: B28 VL
notes: humanized; also called hzmAb5907 LV2bHV7
B30: hzKM5907 LV4HV0 antibody (antibody, V domains shown)
VH: B28 VH
VL: B28 VL with S15L, Q50K
notes: humanized; also called hzmAb5907 LV4HV0
B31: hzKM5907 LV2bHV3c antibody (antibody, V domains shown)
VH: B28 VH with G44R, A92G, A97T
VL: B28 VL
notes: humanized; also called hzmAb5907 LV2bHV3c
B32: hzKM5907 LV4HV7 antibody (antibody, V domains shown)
VH: B28 VH with L4V, G44R, S49A, A92G, V93M, A97T, K98R
VL: B28 VL with S15L, Q50K
notes: humanized; also called hzmAb5907 LV4HV7
B33: hzKM5907 LV2bHV2b antibody (antibody, V domains shown)
VH: B28 VH with S49A, K98R
VL: B28 VL
notes: humanized; also called hzmAb5907 LV2bHV2b
B34: hzKM5907 LV2bHV1 antibody (antibody, V domains shown)
VH: B28 VH with G44R
VL: B28 VL
notes: humanized; also called hzmAb5907 LV2bHV1
B35: hzKM5907 LV2bHV3b antibody (antibody, V domains shown)
VH: B28 VH with G44R, S49A, A97T
VL: B28 VL
notes: humanized; also called hzmAb5907 LV2bHV3b
B36: hzKM5907 LV2bHV4 antibody (antibody, V domains shown)
VH: B28 VH with S49A, A92G, A97T, K98R
VL: B28 VL
notes: humanized; also called hzmAb5907 LV2bHV4

molecular target: T1, human CC chemokine receptor 1 (human …); test: flow cytometry on CHO-S-hCCR1 cells; bound = fluorescence 10 times or more that of isotype control chDNP1
Description: (§1) The antigen affinity of the chKM5908′ antibody, which is a VL-substituted chimeric antibody, was measured by flow cytometry using the CHO-S-hCCR1 cells produced in Example 2. The cells were collected by centrifugation, the supernatant was removed, and the cells were suspended in PBS (Staining Medium, hereinafter, abbreviated as SM) containing 2% fetal bovine serum (FBS), 0.05% NaN₃, and 1 mM EDTA. Next, the cells were seeded in a 96-well plate so that the number of cells is 1×10⁵ per well, and the chKM5908′ antibody was added at each final concentration of 10,000, 2,000, 400, 80, 16, and 3.2 ng/mL, and the reaction was performed at 4° C. for 60 minutes. After washing the cells with SM, Goat F (ab′)₂ Anti-Human IgG PE (γ chain specific) (Southern Biotech) diluted 500-fold with SM was added and reacted at 4° C. for 60 minutes. After washing the cells with SM, the cells were resuspended in 50 μL of SM, and the fluorescence intensity was measured by the flow cytometry (FACS Canto II, BD Biosciences).
1996 June; 33 (9):759-68, hereinafter, referred to as chDNP1)] were determined to be bound to the human CCR1.

binding result	Binder
binds	B1
binds	B2
binds	B3
binds	B4
binds	B5
binds	B6
binds	B7
binds	B8
binds	B9
binds	B10
binds	B11
binds	B12
binds	B13
binds	B14
binds	B15
binds	B16
binds	B17
binds	B18
binds	B19
binds	B20
binds	B21
binds	B22

molecular target: T1, human CC chemokine receptor 1 (human …); test: flow cytometry on CHO-S-hCCR1 cells; bound = fluorescence 10 times or more that of isotype control hzDNP1
Description: as §1
Next, a modified antibody was obtained using the method described in Example 12-(3). […] Hereinafter referred to as hzDNP1)] were determined to bind to the human CCR1.

binding result	Binder
binds	B23
binds	B24
binds	B25
binds	B26
binds	B27
binds	B28
binds	B29
binds	B30
binds	B31
binds	B32
binds	B33
binds	B34
binds	B35
binds	B36
